From publication PMC2174279

Columns and labels:
[1] = target: Bee1p (1-633) (S. cerevisiae); assay: two-hybrid
[2] = target: Bee1p (1-165) (S. cerevisiae); assay: two-hybrid
[3] = target: Bee1p-HA (S. cerevisiae); assay: co-IP

| LacZ expression (two-hybrid) [1] [Miller units] | LacZ expression (two-hybrid) [2] [Miller units] | percent coimmunoprecipitated [3] [%] | Binder |
| --- | --- | --- | --- |
| 144 | 144 |  | Vrp1p (195-817) (domain or fragment) HMPSVRPAHRSHQRKSSNISLPSVSAPPLPSASLPTHVSNPPQAPPPPPTPTIGLDSKNIKPTDNAVSPPSSEVPAGGLPFLAEINARRSERGAVEGVSSTKIQTENHKSPSQPPLPSSAPPIPTSHAPPLPPTAPPPPSLPNVTSAPKKATSAPAPPPPPLPAAMSSASTNSVKATPVPPTLAPPLPNTTSVPPNKASSMPAPPPPPPPPPGAFSTSSALSASSIPLAPLPPPPPPSVATSVPSAPPPPPTLTTNKPSASSKQSKISSSSSSSAVTPGGPLPFLAEIQKKRDDRFVVGGDTGYTTQDKQEDVIGSSKDDNVRPSPISPSINPPKQSSQNGMSFLDEIESKLHKQTSSNAFNAPPPHTDAMAPPLPPSAPPPPITSLPTPTASGDDHTNDKSETVLGMKKAKAPALPGHVPPPPVPPVLSDDSKNNVPAASLLHDVLPSSNLEKPPSPPVAAAPPLPTFSAPSLPQQSVSTSIPSPPPVAPTLSVRTETESISKNPTKSPPPPPSPSTMDTGTSNSPSKNLKQRLFSTGGSTLQHKHNTHTNQPDVDVGRYTIGGSNSIVGAKSGNERIVIDDSRFKWTNVSQMPKPRPFQNKTKLYPSGKGSSVPLDLTLFT |
|  |  | 5 | Vrp1p-Myc (natural protein) MAGAPAPPPPPPPPALGGSAPKPAKSVMQGRDALLGDIRKGMKLKKAETNDRSAPIVGGGVVSSASGSSGTVSSKGPSMSAPPIPGMGAPQLGDILAGGIPKLKHINNNASTKPSPSASAPPIPGAVPSVAAPPIPNAPLSPAPAVPSIPSSSAPPIPDIPSSAAPPIPIVPSSPAPPLPLSGASAPKVPQNRPHMPSVRPAHRSHQRKSSNISLPSVSAPPLPSASLPTHVSNPPQAPPPPPTPTIGLDSKNIKPTDNAVSPPSSEVPAGGLPFLAEINARRSERGAVEGVSSTKIQTENHKSPSQPPLPSSAPPIPTSHAPPLPPTAPPPPSLPNVTSAPKKATSAPAPPPPPLPAAMSSASTNSVKATPVPPTLAPPLPNTTSVPPNKASSMPAPPPPPPPPPGAFSTSSALSASSIPLAPLPPPPPPSVATSVPSAPPPPPTLTTNKPSASSKQSKISSSSSSSAVTPGGPLPFLAEIQKKRDDRFVVGGDTGYTTQDKQEDVIGSSKDDNVRPSPISPSINPPKQSSQNGMSFLDEIESKLHKQTSSNAFNAPPPHTDAMAPPLPPSAPPPPITSLPTPTASGDDHTNDKSETVLGMKKAKAPALPGHVPPPPVPPVLSDDSKNNVPAASLLHDVLPSSNLEKPPSPPVAAAPPLPTFSAPSLPQQSVSTSIPSPPPVAPTLSVRTETESISKNPTKSPPPPPSPSTMDTGTSNSPSKNLKQRLFSTGGSTLQHKHNTHTNQPDVDVGRYTIGGSNSIVGAKSGNERIVIDDSRFKWTNVSQMPKPRPFQNKTKLYPSGKGSSVPLDLTLFT |
| 398 |  |  | Myo5p-SH3-AD (1020-1219) (domain or fragment) NKAATRRSVPNPASTLTASQSNARPSPPTAATRATPAATPAAAAMGSGRQANIPPPPPPPPPSSKPKEPMFEAAYDFPGSGSPSELPLKKGDVIYITREEPSGWSLGKLLDGSKEGWVPTAYMKPHSGNNNIPTPPQNRDVPKPVLNSVQHDNTSANVIPAAAQASLGDGLANALAARANKMRLESDDEEANEDEEEDDW |
